Laboratory results as given in the DeepSol protein solubility set.

Assay: soluble on expression in E. coli; label from the status in PepcDB or PDB records

Soluble on expression in E. coli, not soluble:
MAHHHHHHMRRSSSCLYKIPKNTGVAPRFDTWNEKYEPWEHLKRMGRLAGTGFYIPPEWYNHFRMFPPINHNFQQEKTLNPHNVSEPTQDDTDYLSVERIALRDELARKSRLLASEGMRYYNVFWIRKPLDRMERHYYELERKGVAHSVAIKRVLQMFYDELTVKKRVAAIQAEEAKLSGKYISMREATVLMGVLTQLQKEQLTPHQVTLLAKEQREKAQAGEAFAATVERSTETVADAAKDAAEGDEVMSADSLAELLSTEADLDDSSPSISYKVTIHETEHDSVKQLQELALDHTGKSDWYTGASPVLHMEEAMPAKRTPASKKTES
MAHHHHHHMRRTAFSLMIVPPESHRYAKATFHEGVHRQAPGDSTPWRDVASPLNRFKMWWLAPAAKGTMTAAWCMTIVMGAYCFSIQQDAKGTYLLNNVLLRTLHEEAMRADANQERANELQEYLKQRLEKLEAGGKAASRNMGGDAVKEGLINHELEISRERVRSDSIHQRNQQLVDELLKVRQELAVTRKKHSAALSEIDKLQKLLKACT
MAHHHHHHMRSSQFLLSGLRRTAILMTISDEYIPRAFPVKSTTGLAGIAVEPLWKPKLLAAASELQAFLTSSDIPPESTYYNIAMTLVKRVNHGIKECQDDWCTLEKRYFWGWPVEYILQVTWRELETAQKWNEWRFWELDPEQVKKVAREDQNIGREGLGYNSPWEQVVREDFDKRKKALTQEEMAELKRMDTERMARETAAYKERKDRIRDDLEKARGDMLKKFLNKRFAVDKDLQRMQPGKRYSGKTADDLIAELKSSVENNPQKSDLGK
MAHHHHHHMRVSPNSLSEAASQLEQDRERDFFRLLYIVDRARRFLSIPVGNVDWRLTCDCLDDMNHRYADTGFLLGFTGGYVLRNRAGRTLLSRFWFSMYLGLVFYDWELRRTTRAPALEYWNSICTVDTEVGRIARVLHTPARFYEAAPMSTAFSGGPPPLPRGSSSSPSPAPHGASVRDWLWRYVSDTMSSVLLMTLCSHLFEGSSWRHRTSDNVEVTALVINSRFFHWKVFESCQVQRNETTEYNISLKWFPSFAASDSLRRSFQCRELILERSTLGGRLWYRTHFSLLRCLGLDSQ
MAHHHHHHMRVYYSNLVKDKRKCLNFIKVEKKYGGTSLLTKIGQAFNQEHLRNMKTKLDDVKKSSSPFFGTSMEGSNNIFKNFIDIFRKNNIIKDKLKINDSEKKEKEFYMFYVNSLMKYEGIFTYGKFQAFLKDLCDYFNIFSIKYKYKKKMNPQFEKLKKQYEVLNSFLPYELDNDDYKIFTQESKKYIAQAANVDIKFIDELLLFHDTLKTDRTWFYRRKVLKRNIPESFEAREMEAPYDRPVPKTYNYNIKEHSLEYDEFMKKHGRKLKFKQWNSKQHPWFRKNTSGRNRWATRPYTKQFPYLYYSRVPSHMYLSKNKPKISH
MAHHHHHHMSAAVQTLATVMATDMNYYAGDPTVLAADAASSRVEQILQSSRSDQLTARVAIHAQLREAFKNVDVQQRFKPFLSDGENIQMYVQDAKARARFFSQKQQELQHDILQSEEQRQLKEAHGELAAWERENAVLLRHQMFMTYMPSQALLLESAATVALYRQYATLEEGQYTSDSSDGEVPMMLKKMGGKTYFTQSEQPFEVDTHNKMFSQQVLQNKRVEYEQMREKAAQLRQALEECPTVKRLEAFVELRNDIFVAYGIDRLASLCSRKDKEMGNPNEGGVDASLHGLPADDEYVSSSRVAQYSLPKIVDAAYKNYLNILSMDDWDAMMKHTGSNARAVMEKIKPMKDKETFRYWFLSCITADVPQMGPNKIVGQKATTLEDYKKFWAPQKSNYVPSLTSNRSIFGSKVADRRGLPHFLILSPVTYRYRENNDPNAVKTGTMDLMVYDATNEKVLLMLTNSSDERRPRAAFLKAQEERYRFAAVVRSAITYENQYHGFECEGTVAEYFFDAQEGPEENYYCIMAPHRVYSKQPNKVQVPMKALRPFTSCPPRYFVLGSNWGVSAGTRRNPYPASYAHVELNENAVGLSNVIPDGFISSKVLPQLLSHAEGVQKLEEEMKRQQRAELERPQLSPRALTRASRGGAATPRPSTAPPSPENNAADILADENMRGPGEEEDPLSPLVPNEVLRPVRDQLLKQRRSWQSPAYIAFRARDSDLRRLPAVKDGHLRTPLNVFNDLMREKHGEDAPPASAPSSARRSNGPPSSRTASVACT
